Results: the DeepSol protein solubility set

Assay: soluble on expression in E. coli; label from the status in PepcDB or PDB records

Which “soluble on expression in E. coli” value does the source give for “MSLDDFCNIPKGKEVVFGFNVPQSGAYADEGMDELKAYQLAVKHLNGEGDGGMLKTMKPLALKGNGVLGKKVTFVSGDTQTKADQARATAKRMIEKDGAIMITGGSSSAEAVAVQSLCQDVGVIFMAGLTHSNDTTGKDKRAYGFRHFFNAYMSGVALGPVLAEAYGKDRAAYHLTADYTWGWTQEESMKDATEKQGWKTVKAVRTPLGAADFSQYITPVLNSGADVLILNHYGKDMINSLTQAVQFGLRDKMANGKKFEIVVPLFSELMAQGAGDAIKGIYGTANWDWKLEDAATSAFTKSFGAAYGTPPSQAAQTCYVQAILYADAVERAGTFNPSKVIAALEGFEFDGLGNGKTLYRAADHQCFKDVLVVQGKEKPKDKFDLLEVKKIVPASQVTYDPSIFGGELGSKDAKAEGHHHHHH” here?
Its value is “soluble”.

Which “soluble on expression in E. coli” value does the source give for “KKPIPTLFLHGFGGSANSEKFMVKQAEKRGVTKDIITAYVSKDGAVTFKGKLRKDAVNPIVKIELENNRQGYLDKNAAWFKNVLTKLQSEYNFDKFNFVGHSMGNLTFAQYMMTYGNDKSLPQLNKQVNIAGTFNGVLNMNEDVNEITVDKDGKPSRMNQPYQQLRVLKDIYKGKGIEVLNIYGDLKDGTHSDGRVSNSSSKSLKYLLGNSPKSYRESKYEGEPAQHSQLHENENVANELIDFLWKK” here?
The value was “not soluble”.

For “MTVPDAKRLKDLELENSRLKKLLAESLLDIGALKVVTRGKGEPGSGAGGQEMQAQTDISERRACQLFRLSRSVLCHQPRTSVQNTELQAQLVELARASALWLSPPAHSAAACWCADQLQADLPAILSRRLDGEAAEAPPQGRGGVRMPEPAERTELGLVDGFRLRRAQHWATDQMPDGGR”, which “soluble on expression in E. coli” value is on record?
The value was “not soluble”.

Which “soluble on expression in E. coli” value does the source give for “VGKEKREIELFVSDPELEAEVKAASEGKMKAAIKTEEKKAREAAIEEVKEEILESYKAKELENEAEILGEVAHILEMIEKDEMRRLISQDKIRPDGRKVNEIRP” here?
The value was “not soluble”.

With “MGSDKIHHHHHHMEDIVEALKLAVTNLPEDVALALKNAYEREDYEIAKYNLEIMLRAVKTSKYYYVPLCQDTGTPIFFVETDGTWNVKEIYETIAEAVKRATDEIPLRPNAICLLSGKVVGNVPEIHIEPGKRNRISILIKGGGSENCSALFPLTPGDWFEGVKKKIIDHIRSCGGKPCPPIIVGIGIASPAERAITLAKKSLFRKIGERHEKLGWLEEEILEEINFLDIGPMGLGGKTTALDVKIEVGERHPASFIVGIAIQCWAHRRAFIEEKEDGEVVIWQ” as the sequence, how does the “soluble on expression in E. coli” value read?
The value was “not soluble”.

Which “soluble on expression in E. coli” value does the source give for “HYTSPTVIQAIYNAVEQMDFTPGTVLEPSMGIGNFFGMLPEKLAAAKLYGVELDDLTGRIARQLYQKADITVDGFERTDHPDDFFDLAVGNVPFGSYQVHDKRYDRQNLMIHDYFITKTLDKVRPGGIVAFITTKGTMDKKNSKAREALAQKADLLGAVRLPSNAFKANAGTEVTTDILFFQKRDRIPEKLPEWVEVGQTEDGIPLNRYFLDHPEMVLGTM” here?
The value was “not soluble”.

With “MGRAAEVPGPEPGQQEQLVFGSGDAVELSCPPPGGGPMGPTVWVKDGTGLVPSERVLVGPQRLQVLNASHEDSGAYSCRQRLTQRVLCHFSVRVTDAPSSGDDEDGEDEAEDTGVDTGAPYWTRPERMDKKLLAVPAANTVRFRCPAAGNPTPSISWLKNGREFRGEHRIGGIKLRHQQWSLVMESVVPSDRGNYTCVVENKFGSIRQTYTLDVLERSPHRPILQAGLPANQTAVLGSDVEFHCKVYSDAQPHIQWLKHVEVNGSKVGPDGTPYVTVLKTAGANTTDKELEVLSLHNVTFEDAGEYTCLAGNSIGFSHHSAWLVVLPAEEELVE” as the sequence, how does the “soluble on expression in E. coli” value read?
The value was “soluble”.

For “MIQMSSNDSSEVIRQCLQVLESITSDSSVPRNIRRSVNEIMDILNNESEPLFLRAASSISILEDISNDPNLPLHTRTLIWNLSSQLETIPVDE”, which “soluble on expression in E. coli” value is on record?
The value was “not soluble”.

With “MGSDKIHHHHHHAKDKDAYRQYGINCIENGSYDDAVDAFQKALDQSVGSVGAEELDICYYKAKAQYLSGDVDGAIDTYTAIIDYNKDSDAYYLRGCIYFAKNDSDKGLKDFKTALSENNDNYELYLGVYETLSKYGMNDQGKEYLDNALKLKAKTADDYMQRGRIYTMLGDYDSAIKSLQKAIDEKLVKANYYMGEVYQKKGDNDSSQKYFKKYLDSGEADSYELMNMGQAQMDNGNYDTAITYFQNALELESVPNKQQITKAMIIAYEYSGDFATAKSKMEEYMKDYPDDEDAAREYQFLETR” as the sequence, how does the “soluble on expression in E. coli” value read?
The value was “not soluble”.

Which “soluble on expression in E. coli” value does the source give for “SLRQDELKELERAIAEITEIAEGFGLDFYPMRYEICPADILYTFGAYGMPTRFSHWSFGKQFYKMKLHYDLGLSKIYELVINSDPCYAFLLDTNTLIQNKLIVAHVLAHSDFFKNNVRFSNTKRDMVESMAATAERIKHYEHQYGKLEVEKFLDAVLAIQEHIDPSLLRPKLSWTWEDTEVYEEEEPPKTSTPYDDLWSLDERDKLKTPPRKKRRKFPPQPEKDVLLFIEEYSRELEDWQRDILTMMREEMLYFWPQLETKIMNEG” here?
Its value is “not soluble”.

For “SADSKEGVLPLTAASTAPISFGFTRTSARRRLADSGDGAGPSPEEKDFLKTVEGRELQSVKPQEAPKELVIPLIQNGHRRQPPARPPGPSTDTGALADGVVSQAVKELIAESKKSLEERENAGVDPTLAIPMIQKGCTPSGEGADSEPRAETVPEEANYEAVPVEAYGLAMLRGMGWKPGEGIGRTFNQVVKPRVNSLRPKGLGLGANLTEAQALTPTGPSRMPRPDEEQEKDKEDQPQGLVPGGAVVVLSGPHRGLYGKVEGLDPDNVRAMVRLAVGSRVVTVSEYYLRPVSQQEFDKNTLDLRQQNGTASSRKTLWNQELYIQQDNSERKRKHLPDRQDGPAAKSEKAAPRSQHWLHRDLRVRFVDNMYKGGQYYNTKMIIEDVLSPDTCVCRTDEGRVLEGLREDMLETLVPKAEGDRVMVVLGPQTGRVGHLLSRDRARSRALVQLPRENQVVELHYDAICQYMGPSDTDDD”, which “soluble on expression in E. coli” value is on record?
Its value is “soluble”.

Which “soluble on expression in E. coli” value does the source give for “MPKERKERSVSLDKYKRSPLCCEASLALKPSEKQVKEWEEARCPVCMEHPHNGILLICSSYENGCRPYMCDTSHRHSNCFDQFRKASKEKPSLSLLREEEESNEPTEMEDVDSDSTAVNLLGEAASEITVVDLSDGERGEEEVEEEEEEVVVEEEEEGIVTTEEDQEKNKPQKLTCPLCRGHIKEWVVVKAARCFMNSKHRSCSCETCDFSGSYSDLRKHARLLHPGVRPSEADPERQRSWRRLERQSDLGDLLSTLQSSFGGDEISNDDGFLFADTRLLTVYFLIRVFRPESSGSRSSSWSGTSRARTHTSGRRRSSRPASLWGESYEGNTGTSPRDEENNQSSDEQVSGTRRRRSRRRTVIDDDDEEEEP” here?
Its value is “not soluble”.

With “MGSDKIHHHHHHMLQTLQKDAIELLKTLIKTESFSKEEHNTAEILNTFLVERGVETIREKNNVWAFNKHFDKNKPTILLNSHHDTVKPNPGYTNDPFEPIVKDGKLFGLGSNDAGGCLVSLIATFLHFYNETNLKYNFCIAATAEEEISGFDGLELVYPKLGPIDFAIVGEPTLMDIAVAEKGLMVVDCVAIGKAGHAAREEGENAIYIALKDIEWIRNYKFERVSPHLGPMKMSVTIINAGYQHNVVPEKCHFTIDVRITEEYKNEEVLKIIDDNIQSEVNPRSVRLRPSFIDPNHELVHAAIKHGAKTYGSPTTSDQALIPVPSVKMGPGNSARSHTANEFIWLIEIEEGIEKYIKVLSEIVLA” as the sequence, how does the “soluble on expression in E. coli” value read?
The value was “not soluble”.

With “MGSDKIHHHHHHMDLKKWQDPLMNSELQQNYNDNLVKLAGSLEKANQDMTHVNQRISNLVIKSGGNESNEVVDARVSSLVPETEFTTLNDRINYAENALITGVGKLSTNVFDLMDKYNDIDTILKRLYGLDSSNIEIFVDDARGDDIAGTGEIDAPFKTINKAVMTLPRVLNSNSVNIWIVPGRYNEDVVIPPIMGGDIYIRSTNFETVDPTSSTGCQVRSISATGSNGYLYIAGLEETNTAGTTKNYFIKATRCGFVRITKCRMAFNTKAIDPFTAVFIDACSADVNGCYFASQNVDVRGYNTARVEVQNIVHGAKSAIGLYPQSADIFNLNSGTWEADTPTKLSGGGVVRT” as the sequence, how does the “soluble on expression in E. coli” value read?
The value was “not soluble”.

Which “soluble on expression in E. coli” value does the source give for “MGSDKIHHHHHHETQPESAAFTAPSTDNPIRINFNENPLGMSPKAQAAARDAVVKANRYAKNEILMLGNKLAAHHQVEAPSILLTAGSSEGIRAAIEAYASLEAQLVIPELTYGDGEHFAKIAGMKVTKVKMLDNWAFDIEGLKAAVAAYSGPSIVYLVNPNNPTGTITPADVIEPWIASKPANTMFIVDEAYAEFVNDPRFRSISPMITQGAENIILLKTFSKIHAMAGMRVGYAVAHPTVIALMGRYVAGEKINFSGVDAALASMNDSAFITYSKKSNDVSRQILLKALEDLKLPYLPSEGNFVFHQLVVPLKDYQTHMADAGVLIGRAFPPADNWCRISLGTPQEMQWVADTMREFRKKSWI” here?
Its value is “not soluble”.
